# B1: KIVD variant G402V/M538L/F542V (KIVD_VLV), SEQ ID NO:3 (Lactococcus lactis subsp. lactis; F542V/G402V/M538L) (protein)
# chain: MYTVGDYLLDRLHELGIEEIFGVPGDYNLQFLDQIISRKDMKWVGNANELNASYMADGYARTKKAAAFLTTFGVGELSAVNGLAGSYAENLPVVEIVGSPTSKVQNEGKFVHHTLADGDFKHFMKMHEPVTAARTLLTAENATVEIDRVLSALLKERKPVYINLPVDVAAAKAEKPSLPLKKENSTSNTSDQEILNKIQESLKNAKKPIVITGHEIISFGLEKTVSQFISKTKLPITTLNFGKSSVDEALPSFLGIYNGKLSEPNLKEFVESADFILMLGVKLTDSSTGAFTHHLNENKMISLNIDEGKIFNESIQNFDFESLISSLLDLSEIEYKGKYIDKKQEDFVPSNALLSQDRLWQAVENLTQSNETIVAEQGTSFFGASSIFLKPKSHFIGQPLWVSIGYTFPAALGSQIADKESRHLLFIGDGSLQLTVQELGLAIREKINPICFIINNDGYTVEREIHGPNQSYNDIPMWNYSKLPESFGATEERVVSKIVRTENEFVSVMKEAQADPNRMYWIELILAKEDAPKVLKKLGKLVAEQNKS
# B2: 1OZF, ketoacid decarboxylase (Klebsiella pneumoniae) (protein)
# chain: MDKQYPVRQWAHGADLVVSQLEAQGVRQVFGIPGAKIDKVFDSLLDSSIRIIPVRHEANAAFMAAAVGRITGKAGVALVTSGPGCSNLITGMATANSEGDPVVALGGAVKRADKAKQVHQSMDTVAMFSPVTKYAIEVTAPDALAEVVSNAFRAAEQGRPGSAFVSLPQDVVDGPVSGKVLPASGAPQMGAAPDDAIDQVAKLIAQAKNPIFLLGLMASQPENSKALRRLLETSHIPVTSTYQAAGAVNQDNFSRFAGRVGLFNNQAGDRLLQLADLVICIGYSPVEYEPAMWNSGNATLVHIDVLPAYEERNYTPDVELVGDIAGTLNKLAQNIDHRLVLSPQAAEILRDRQHQRELLDRRGAQLNQFALHPLRIVRAMQDIVNSDVTLTVDMGSFHIWIARYLYTFRARQVMISNGQQTMGVALPWAIGAWLVNPERKVVSVSGDGGFLQSSMELETAVRLKANVLHLIWVDNGYNMVAIQEEKKYQRLSGVEFGPMDFKAYAESFGAKGFAVESAEALEPTLRAAMDVDGPAVVAIPVDYRDNPLLMGQLHLSQIL
# B3: 1ZPD, ketoacid decarboxylase, SEQ ID NO: 22 (Zymomonas mobilis subsp. mobilis ZM4 = ATCC 31821) (protein)
# chain: MSYTVGTYLAERLVQIGLKHHFAVAGDYNLVLLDNLLLNKNMEQVYCCNELNCGFSAEGYARAKGAAAAVVTYSVGALSAFDAIGGAYAENLPVILISGAPNNNDHAAGHVLHHALGKTDYHYQLEMAKNITAAAEAIYTPEEAPAKIDHVIKTALREKKPVYLEIACNIASMPCAAPGPASALFNDEASDEASLNAAVDETLKFIANRDKVAVLVGSKLRAAGAEEAAVKFTDALGGAVATMAAAKSFFPEENALYIGTSWGEVSYPGVEKTMKEADAVIALAPVFNDYSTTGWTDIPDPKKLVLAEPRSVVVNGIRFPSVHLKDYLTRLAQKVSKKTGSLDFFKSLNAGELKKAAPADPSAPLVNAEIARQVEALLTPNTTVIAETGDSWFNAQRMKLPNGARVEYEMQWGHIGWSVPAAFGYAVGAPERRNILMVGDGSFQLTAQEVAQMVRLKLPVIIFLINNYGYTIEVMIHDGPYNNIKNWDYAGLMEVFNGNGGYDSGAAKGLKAKTGGELAEAIKVALANTDGPTLIECFIGREDCTEELVKWGKRVAAANSRKPVNKVVGSTENLYFQSGALE
# Columns and labels:
# Assay in all cases: Steady-state kinetics of 2-ketoacid decarboxylase (ADH/NADH coupled)
# Settings in all cases: other: pH 7.5, 21° C.
# [1] = substrate: CCCC(=O)C(=O)O; assay type: biochemical, Lactococcus lactis
# Protocol: (§1) Since KIVD can already efficiently utilize C8 as a substrate, enzyme specificity is of primary importance. Therefore each mutant was screened against a panel of 2-ketoacid substrates in order to assess the specificity and activity of each mutant. (FIG. 11) This assay was performed using a high-throughput pH-dependent colorimetric assay of enzyme activity in crude cell extracts. Mutations that increased specificity for C8 were then combined to produce combinatorial mutants and screened for specificity with the colorimetric assays. […] The engineered enzyme KIVD_VLV has a 600-fold improvement in specificity between C8 and C5, in terms of catalytic efficiency, relative to the native KIVD.
# (§2) For the native KIVD and KIVD_VLV mutant, 2 ml overnight cultures of XL1B cells were transformed with pQE9 containing N-terminal his-tagged KIVD enzymes and grown in Terrific Broth (BP biomedical, Cat#3046-042) with 50 μg/mL of carbenicillin. (Fisher scientific, Cat# BP2648-5) For the GEOs, 2 ml overnight cultures of BLR cells were transformed with pet29b+ plasmid containing N-terminal his-tagged GEOs, and grown in Terrific Broth with 50 μg/mL of kanamycin. (Fisher scientific, Cat# BP906-5) These cultures were diluted 1:1000 in 500 mL of Terrific Broth with 1 mM MgSO4, 1% glucose, and 50ug/mL of corresponding antibiotics, then grown at 37° C. for 24 hours. Cultures were pelleted down at 4700 rpm for 10 mins and resuspended in auto-induction media (LB broth, 1 mM MgSO4, 0.1 mM TPP, 1×NPS, and 1×5052) for induction at 18° C. for 34 hours. At the end of induction, cells were centrifuged (4700 rpm, 4° C., 20 minutes), supernatant was removed, and cells were resuspended in 40 mL lysis buffer (100 mM Hepes pH 7.5, 100 mM NaCl, 10% glycerol, 0.1 mM TPP, 1 mM MgSO4, 10 mM Imidazole, 1 mM TCEP) and 1 mM PMSF) and sonicated for 2 minutes. Lysed cells were centrifuged at 4700 rpm at 4° C. for 60 mins to remove cell debris. […] Protein concentrations were determined using a Synergy H1 spectrophotometer (Biotek) by measuring absorbance at 280 nm using their calculated extinction coefficients with ExPASy ProtParam Tool.^33 All other buffers and salts were purchased from Fisher Scientific unless otherwise specified.
# (§3) The kcat and KM values of selective KIVD mutants were measured for the substrates: C3, C5, isoC5, and C8. […] Activity was measured at 0.005 mM to 10 mM substrates. […] Absorbance readings were taken every 1-minute at OD340 at 21° C. for 60 minutes using the Synergy H1. Kinetic parameters (kcat and KM) were determined by fitting initial velocity versus substrate concentration data to the Michaelis-Menten equation.
# [2] = substrate: CCCCCCC(=O)C(=O)O; assay type: biochemical, Lactococcus lactis
# Protocol: as §1, §2, §3
# [3] = substrate: CC(C)C(=O)C(=O)O; assay type: biochemical
# Source text: (§4) To evaluate if the integrative genomic mining approach enriches the mining for C8 activity, an additional set of previously characterized ketoacid decarboxylases diverse in sequence were experimentally characterized in an equivalent manner. […] The median C8 activity from the GEOs selected using the integrative genomic mining approach is 75-fold higher than the naively picked decarboxylases (Table 1, FIG. 4). This indicates the integrative genomic mining approach is effective in identifying functional enzymes that perform the desired reaction on C8.
# For the native KIVD and KIVD_VLV mutant, 2 ml overnight cultures of XL1B cells were transformed with pQE9 containing N-terminal his-tagged KIVD enzymes and grown in Terrific Broth (BP biomedical, Cat#3046-042) with 50 μg/mL of carbenicillin. […] Protein concentrations were determined using a Synergy H1 spectrophotometer (Biotek) by measuring absorbance at 280 nm using their calculated extinction coefficients with ExPASy ProtParam Tool.^33 All other buffers and salts were purchased from Fisher Scientific unless otherwise specified.
# The kcat and KM values of selective KIVD mutants were measured for the substrates: C3, C5, isoC5, and C8. […] Activity was measured at 0.005 mM to 10 mM substrates. […] Absorbance readings were taken every 1-minute at OD340 at 21° C. for 60 minutes using the Synergy H1. […]
# [4] = substrate: CC(=O)C(=O)O; assay type: biochemical
# Source text: (§5) FIG. 17: Depicts protein sequences of various 2-ketoacid decarboxylases (SEQ ID NOS:20-34). Protein Sequence 3FZN is SEQ ID NO: 20. Protein sequence 2VBI is SEQ ID NO: 21. Protein sequence 1ZPD is SEQ ID NO: 22. Protein sequence ZP_08570611 is SEQ ID NO: 23. Protein sequence YP_831380 is SEQ ID NO: 24. Protein sequence ZP_06547677 is SEQ ID NO: 25. Protein sequence 1OVM_P23234 is SEQ ID NO: 26. Protein sequence ZP_06418208 is SEQ ID NO: 27. Protein sequence ZP_07290467 is SEQ ID NO: 28. Protein sequence 2VBG is SEQ ID NO: 29. Protein sequence CAK95977 is SEQ ID NO: 30. Protein sequence ZP_07282849 is SEQ ID NO: 31. Protein sequence ZP_06846103 is SEQ ID NO: 32. Protein sequence ZP_04996569 is SEQ ID NO: 33. Protein sequence YP_381143 is SEQ ID NO: 34.
# as §4
# (§6) For the native KIVD and KIVD_VLV mutant, 2 ml overnight cultures of XL1B cells were transformed with pQE9 containing N-terminal his-tagged KIVD enzymes and grown in Terrific Broth (BP biomedical, Cat#3046-042) with 50 μg/mL of carbenicillin. (Fisher scientific, Cat# BP2648-5) For the GEOs, 2 ml overnight cultures of BLR cells were transformed with pet29b+ plasmid containing N-terminal his-tagged GEOs, and grown in Terrific Broth with 50 μg/mL of kanamycin. (Fisher scientific, Cat# BP906-5) These cultures were diluted 1:1000 in 500 mL of Terrific Broth with 1 mM MgSO4, 1% glucose, and 50ug/mL of corresponding antibiotics, then grown at 37° C. for 24 hours. Cultures were pelleted down at 4700 rpm for 10 mins and resuspended in auto-induction media (LB broth, 1 mM MgSO4, 0.1 mM TPP, 1×NPS, and 1×5052) for induction at 18° C. for 34 hours. At the end of induction, cells were centrifuged (4700 rpm, 4° C., 20 minutes), supernatant was removed, and cells were resuspended in 40 mL lysis buffer (100 mM Hepes pH 7.5, 100 mM NaCl, 10% glycerol, 0.1 mM TPP, 1 mM MgSO4, 10 mM Imidazole, 1 mM TCEP) and 1 mM PMSF) and sonicated for 2 minutes. Lysed cells were centrifuged at 4700 rpm at 4° C. for 60 mins to remove cell debris. Supernatant was loaded on gravity flow column with 700 μl of cobalt slurry (Fisher scientific, CAT# PI-90091) washed with 10 ml of wash buffer (100 mM Hepes pH 7.5, 100 mM NaCl, 10% glycerol, 0.1 mM TPP, 1 mM MgSO4, 10 mM Imidazole, and 1 mM TCEP). Cobalt bead bed was washed with 15 ml of wash buffer 5 times and proteins were eluted with 1000 μl of elution buffer (100 mM Hepes pH 7.5, 100 mM NaCl, 10% glycerol, 0.1 mM TPP, 1 mM MgSO4, 200 mM Imidazole, and 1 mM TCEP). Protein samples were immediately buffer exchanged with spin concentrators (Satorius, CAT# VS0112) into storage buffer (100 mM Hepes pH 7.5, 100 mM NaCl, 10% glycerol, 0.1 mM TPP, 1 mM MgSO4, and 1 mM TCEP) and stored at 4° C. until kinetics characterization. Protein concentrations were determined using a Synergy H1 spectrophotometer (Biotek) by measuring absorbance at 280 nm using their calculated extinction coefficients with ExPASy ProtParam Tool.^33 All other buffers and salts were purchased from Fisher Scientific unless otherwise specified.
# (§7) The kcat and KM values of selective KIVD mutants were measured for the substrates: C3, C5, isoC5, and C8. All substrates were dissolved in MilliQ H2O and pH was adjusted to 7.5 as necessary. Activity was measured at 0.005 mM to 10 mM substrates. The assay was performed in a 96-well half-area plate. […]
# [5] = substrate: CCCC(=O)C(=O)O; assay type: biochemical
# Source text: as §5, §4, §6, §7
# [6] = substrate: CCCCCCC(=O)C(=O)O; assay type: biochemical
# Source text: as §5, §4, §6, §7
protein,measurement,setting,value
B1,Km,[1],10.0 ± 1.0 mM
same,kcat,[1],0.013 ± 0.001 s⁻¹
same,Km,[2],0.18 ± 0.05 mM
same,kcat,[2],0.5 ± 0.03 s⁻¹
B2,Km,[3],1.8 ± 0.1 mM
same,kcat,[3],0.03 ± 0.001 s⁻¹
B3,Km,[4],5.7 ± 0.3 mM
same,kcat,[4],46.7 ± 1.4 s⁻¹
same,kcat/Km,[4],8200 ± 545 M⁻¹ s⁻¹
same,Km,[5],7.1 ± 0.3 mM
same,kcat,[5],0.95 ± 0.02 s⁻¹
same,kcat/Km,[5],140 ± 5.6 M⁻¹ s⁻¹
same,Km,[6],1.2 ± 0.1 mM
same,kcat,[6],0.021 ± 0.001 s⁻¹
same,kcat/Km,[6],19 ± 2 M⁻¹ s⁻¹

# From patent US10829756B2, “Discovery of enzymes from the alpha-keto acid decarboxylase family” (priority 2015, dated 2020)
